Test results: patent US20260374897 (published 2026)

T1: mouse FAP (cell surface) (mouse, UniProt P97321)
T1 chain: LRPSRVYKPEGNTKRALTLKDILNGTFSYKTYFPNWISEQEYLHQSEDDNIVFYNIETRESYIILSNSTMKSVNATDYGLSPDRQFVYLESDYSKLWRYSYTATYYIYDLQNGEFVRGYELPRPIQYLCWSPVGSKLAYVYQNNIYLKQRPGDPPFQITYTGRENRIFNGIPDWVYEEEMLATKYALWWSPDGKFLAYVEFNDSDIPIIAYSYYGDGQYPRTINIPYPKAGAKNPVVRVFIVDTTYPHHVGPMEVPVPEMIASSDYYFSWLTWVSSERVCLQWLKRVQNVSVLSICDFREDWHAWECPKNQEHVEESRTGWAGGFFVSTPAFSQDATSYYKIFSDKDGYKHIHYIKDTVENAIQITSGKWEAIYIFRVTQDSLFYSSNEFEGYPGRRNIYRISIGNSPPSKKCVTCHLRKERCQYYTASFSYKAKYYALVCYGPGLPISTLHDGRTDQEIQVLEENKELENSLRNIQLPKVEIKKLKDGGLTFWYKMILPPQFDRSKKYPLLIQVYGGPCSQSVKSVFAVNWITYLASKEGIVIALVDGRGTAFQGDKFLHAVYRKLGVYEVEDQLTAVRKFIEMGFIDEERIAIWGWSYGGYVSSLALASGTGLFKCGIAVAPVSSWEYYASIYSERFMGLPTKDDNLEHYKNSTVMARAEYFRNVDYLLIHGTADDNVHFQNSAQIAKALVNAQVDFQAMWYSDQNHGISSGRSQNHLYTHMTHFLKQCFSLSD


Assays:
human FAP ECD = human FAP ECD (human, UniProt Q12884); experiment: SPR
mouse FAP (cell surface) = target: T1, mouse FAP (cell surface); experiment: FACS
human FAP (cell surface) = human FAP (cell surface) (human, UniProt Q12884); experiment: FACS
Sequence of human FAP (cell surface) (Q12884 26-760): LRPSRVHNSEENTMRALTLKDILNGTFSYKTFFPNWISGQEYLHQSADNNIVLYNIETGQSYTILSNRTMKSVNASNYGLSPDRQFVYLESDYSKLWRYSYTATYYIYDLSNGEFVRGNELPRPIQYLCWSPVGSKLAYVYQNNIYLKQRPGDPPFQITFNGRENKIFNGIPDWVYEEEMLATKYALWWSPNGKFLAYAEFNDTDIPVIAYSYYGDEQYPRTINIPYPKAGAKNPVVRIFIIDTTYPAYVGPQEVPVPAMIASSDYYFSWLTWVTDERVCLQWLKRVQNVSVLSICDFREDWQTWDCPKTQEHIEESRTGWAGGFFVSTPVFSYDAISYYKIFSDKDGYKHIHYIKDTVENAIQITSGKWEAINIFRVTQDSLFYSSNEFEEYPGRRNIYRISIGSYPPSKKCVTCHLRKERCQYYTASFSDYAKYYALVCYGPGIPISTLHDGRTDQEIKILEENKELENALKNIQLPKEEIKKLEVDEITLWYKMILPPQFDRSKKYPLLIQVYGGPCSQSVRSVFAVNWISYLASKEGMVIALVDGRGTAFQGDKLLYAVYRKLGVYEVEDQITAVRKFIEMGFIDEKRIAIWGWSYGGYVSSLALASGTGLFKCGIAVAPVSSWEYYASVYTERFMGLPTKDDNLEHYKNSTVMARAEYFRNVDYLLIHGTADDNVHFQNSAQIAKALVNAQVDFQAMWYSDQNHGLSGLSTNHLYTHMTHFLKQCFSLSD

Sequence of human FAP ECD (Q12884 26-760): as above

Kd (human FAP ECD) [nM] | EC50 (mouse FAP (cell surface)) [nM] | EC50 (human FAP (cell surface)) [nM] | Binder
0.405 | 0.79 | 2.51 | Ab10-A297V3-2 FAP arm (antibody, V domains shown) VH: QVQLQQSGVEVKKPGASVTVSCRASGYSFADHFIHWVRQAPGQGFQWMGWINPNRGVTHHAQDFQGRVAMTRDMSTDTVYMELTSLRSDDTAVYYCARDASLTARPYYFYGFDVWGQGTLVTVSS VL: DIQMTQSPSSVSASVGDRVTITCRASQGISSWLAWYQQKPGKAPKLLIYAASSLQSGVPSRFSGSGSGTDFTLTISSLQPEDFATYYCQQANSFPPAFGQGTKVEIK
0.378 | 1.65 | 1.57 | Ab10-A297V3-4 FAP arm (antibody, V domains shown) VH: QVQLQQSGVEVKKPGASVTVSCRASGYSFADHFIHWVRQAPGQGFQWMGWINPNRGVTHHAQDFQGRVAMTRDMSTDTVYMELTSLRSDDTAVYYCARDASLTARPYYFYGFDVWGQGTLVTVSS VL: DIQMTQSPSSVSASVGDRVTITCRASQGISSWLAWYQQKPGKAPKLLIYAASSLQSGVPSRFSGSGSGTDFTLTISSLQPEDFATYYCQQANSFPPAFGQGTKVEIK
